Values joined by “and” are separate entries in the source; they are usually repeats but may differ in a detail not shown here. Identical values can stand only once.

For experiment [1], the target named is N-terminal domain of SARS-CoV-2 nucleocapsid protein (NTD-N_(41-174)) (SARS-CoV-2) (UniProt P0DTC9). The experiment in a line: ITC. A general note: Isothermal titration calorimetry measures the heat released or taken up as one component is titrated into another.
The target in experiment [2] is NTD-N_(41-174) protein double mutant (WV133134AA) (SARS-CoV-2) (UniProt P0DTC9). The experiment in a line: ITC.
The target of experiment [3] is NTF2-like domain of Ras GTPase-activating protein SH3-domain-binding protein 1 (G3BP1_(NTF-2)) (human, UniProt Q13283 1-139). The experiment in a line: ITC.
Experiment [4] addresses GFP-tagged G3BP1_(NTF-2) (G3BP1_(NTF-2)-GFP) (human, UniProt Q13283 1-139). The experiment in a line: fluorescence intensity-based PPIs plate assay.

In experiment [1], “NTF2-like domain of Ras GTPase-activating protein SH3-domain-binding protein 1 (G3BP1_(NTF-2)) (from UniProt Q13283 1-139) (domain or fragment)” registered a dissociation constant (Kd) of 5.5 µM. For the same molecule, the fold higher KD than the single mutants (V134A and W133A) in experiment [2] is 2 fold and 4 fold.
In experiment [3], KDGIIWVATEG [N_(128-138) peptide 1 (KDGIIWVATEG)] displayed a Kd of 11.8 µM.
Regarding KDGIIAAATEG [mutant N_(128-138) peptide 2 (KDGIIAAATEG)], the binding result in experiment [4] is “binds”.
Same read-out and setting: with KAGIIAAATEG [mutant N_(128-138) peptide 3 (KAGIIAAATEG)] the entry was “binds”.

Usually Kd stands for a measure of binding affinity in units of concentration. A high value points to lower affinity.
